# Results from patent US20120014998A1.
# B1: E. coli Cpn10 (GroES) (protein)
# chain: MNIRPLHDRVIVKRKEVETKSAGGIVLTGSAAAKSTRGEVLAVGNGRILENGEVKPLDVKVGDIVIFNDGYGVKSEKIDNEEVLIMSESDILAIVEA
# Biological target: GroEL (E. coli Cpn60) (E. coli) (UniProt P0A6F5)
# Experiment: cell-based or functional assay
# Chain of GroEL (E. coli Cpn60) (E. coli) (P0A6F5 2-548 limits assumed): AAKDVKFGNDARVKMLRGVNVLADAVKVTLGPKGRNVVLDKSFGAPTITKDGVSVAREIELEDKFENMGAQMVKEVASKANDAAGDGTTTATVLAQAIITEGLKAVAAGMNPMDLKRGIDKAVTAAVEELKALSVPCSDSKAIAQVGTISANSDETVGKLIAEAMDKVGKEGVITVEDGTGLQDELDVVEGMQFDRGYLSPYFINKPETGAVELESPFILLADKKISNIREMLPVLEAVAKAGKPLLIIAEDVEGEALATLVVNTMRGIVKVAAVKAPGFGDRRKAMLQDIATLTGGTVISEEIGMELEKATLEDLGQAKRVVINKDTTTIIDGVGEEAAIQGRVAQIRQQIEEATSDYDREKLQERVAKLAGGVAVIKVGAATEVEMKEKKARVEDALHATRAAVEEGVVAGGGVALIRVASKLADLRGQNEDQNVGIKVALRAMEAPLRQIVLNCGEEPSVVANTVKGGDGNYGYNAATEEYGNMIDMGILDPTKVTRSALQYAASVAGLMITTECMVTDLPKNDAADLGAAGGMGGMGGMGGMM
binder,measurement,value
B1,Refolding activity (% of Ala-Cpn10) (% of Ala-Cpn10),109
